Measured values taken from article PMC11330416.

How the values were obtained:
[1] = target: NRC SARS-CoV-2 (reference strain) spike protein reference material SMT1-1 (SARS-CoV-2 (reference strain, Wuhan-Hu-1)); assay: SEC-MALS; Waters BEH SEC 4.6 x 150 mm column (200 A for ACE2-1, 450 A for OMIC-1), DPBS with 0.02% Tween-20, pH 7.4, 0.4 mL/min; UV at 280 nm, MALS and RI detection; relative amounts of species from SEC-UV
[2] = target: biotinylated human angiotensin-converting enzyme 2 reference material ACE2-1 (human) (UniProt Q9BYF1); assay: SPR; ACE2-1 immobilised by its biotin on streptavidin on a biotin-coated Au chip (250-300 RU), blocked with 10 uM BSA; spike analyte in a twofold series of 12.5-200 nM at 50 uL/min, about 90 s association, 30-45 min dissociation; 10 mM HEPES pH 7-7.4, 150 mM NaCl, 3 mM EDTA, 0.05% Tween-20; 1:1 binding model; averages of two independent experiments
Sequence of biotinylated human angiotensin-converting enzyme 2 reference material ACE2-1 (human) (Q9BYF1 20-614): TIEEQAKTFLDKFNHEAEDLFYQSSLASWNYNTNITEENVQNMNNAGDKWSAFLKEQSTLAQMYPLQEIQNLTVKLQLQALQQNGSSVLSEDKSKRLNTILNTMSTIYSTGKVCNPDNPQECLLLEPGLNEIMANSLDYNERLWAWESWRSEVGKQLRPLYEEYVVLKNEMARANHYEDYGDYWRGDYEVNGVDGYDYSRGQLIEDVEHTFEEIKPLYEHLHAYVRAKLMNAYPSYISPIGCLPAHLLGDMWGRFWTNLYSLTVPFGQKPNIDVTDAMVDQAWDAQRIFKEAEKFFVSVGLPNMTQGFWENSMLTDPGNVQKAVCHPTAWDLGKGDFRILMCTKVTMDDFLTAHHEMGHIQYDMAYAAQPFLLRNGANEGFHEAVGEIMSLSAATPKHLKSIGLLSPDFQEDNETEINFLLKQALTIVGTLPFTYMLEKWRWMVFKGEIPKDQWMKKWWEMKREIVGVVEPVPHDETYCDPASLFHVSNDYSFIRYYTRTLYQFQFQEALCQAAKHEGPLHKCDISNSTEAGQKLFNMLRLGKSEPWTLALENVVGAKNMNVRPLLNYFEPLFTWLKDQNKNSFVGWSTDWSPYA

Substance “NRC SARS-CoV-2 (reference strain) spike protein reference material SMT1-1” has a stoichiometry N [1] of 3, a Kd [2] of 17.1 nM and a koff [2] of 0.0018 s⁻¹. The kon [2] was 110000 M⁻¹ s⁻¹.
